Measurements published in PMC9636508, “Reciprocal interactions among Cobll1, PACSIN2, and SH3BP1 regulate drug resistance in chronic myeloid leukemia” (Cancer Medicine, 2022).

Assays:
[1] = target: T1, Cobll1-NT-f (N-terminal region of Cobll1, residues 1-410) (UniProt Q53SF7 1-410); assay: SPR; PACSIN2 SH3 domain immobilised on a PEG chip by amine coupling (Reichert SR7500DC); 25°C; PBS (10 mM KH2PO4, 137 mM NaCl, 2.7 mM KCl, pH 7.4); 3 min association, 10 min dissociation; settings: both partners purified
T1 construct: Cobll1 N-terminal region, residues 1-410, cloned into pGEX-4T-1; source: E. coli BL21-CodonPlus (DE3), purified (GST column, tag cleavage, ion exchange, Superdex)

[2] = target: T2, SH3BP1-CT (C-terminal region of SH3BP1, residues 541-701) (UniProt Q9Y3L3 541-701); assay: as above; settings: both partners purified
T2 construct: SH3BP1 C-terminal region containing all proline-rich motifs, residues 541-701, cloned into pET-21a; also called SH3PB1-CT; source: E. coli BL21-CodonPlus (DE3), purified (Ni column, Superdex 75)
T2 sequence (looked up): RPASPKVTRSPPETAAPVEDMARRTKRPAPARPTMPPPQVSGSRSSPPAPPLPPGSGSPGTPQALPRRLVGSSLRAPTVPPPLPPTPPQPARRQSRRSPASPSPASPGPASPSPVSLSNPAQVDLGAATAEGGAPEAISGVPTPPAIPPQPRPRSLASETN

T1 sequence (Q53SF7 1-410): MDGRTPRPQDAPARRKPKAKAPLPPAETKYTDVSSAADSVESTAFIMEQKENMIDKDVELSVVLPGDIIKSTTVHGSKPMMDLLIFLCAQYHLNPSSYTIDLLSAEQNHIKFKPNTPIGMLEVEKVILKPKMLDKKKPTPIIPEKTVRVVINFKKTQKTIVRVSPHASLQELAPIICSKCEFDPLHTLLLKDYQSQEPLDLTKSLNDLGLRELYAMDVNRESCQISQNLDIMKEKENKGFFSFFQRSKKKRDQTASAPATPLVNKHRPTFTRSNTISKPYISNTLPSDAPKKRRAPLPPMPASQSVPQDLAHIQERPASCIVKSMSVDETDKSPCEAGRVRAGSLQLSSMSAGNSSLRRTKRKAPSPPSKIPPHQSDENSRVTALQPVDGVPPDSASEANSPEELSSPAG

B1: PACSIN2 SH3 domain (residues 430-486), purified (domain or fragment)
chain: not shown
notes: 15N- or 15N,13C-labelled for NMR, unlabelled for SPR; source: E. coli BL21-CodonPlus (DE3), purified (GST column, tag cleavage, ion exchange, Superdex)
Kd [1]: 25.8 nM | Kd [2]: 2200 nM
